Experimental data: PMC3193378 (European Journal of Immunology, 2011)

Columns and labels:
[1] = biological target: T1, soluble CD14 protein (sCD14, aa 1-352) (human, UniProt P08571 20-352); experiment: ELISA
T1 sequence (looked up): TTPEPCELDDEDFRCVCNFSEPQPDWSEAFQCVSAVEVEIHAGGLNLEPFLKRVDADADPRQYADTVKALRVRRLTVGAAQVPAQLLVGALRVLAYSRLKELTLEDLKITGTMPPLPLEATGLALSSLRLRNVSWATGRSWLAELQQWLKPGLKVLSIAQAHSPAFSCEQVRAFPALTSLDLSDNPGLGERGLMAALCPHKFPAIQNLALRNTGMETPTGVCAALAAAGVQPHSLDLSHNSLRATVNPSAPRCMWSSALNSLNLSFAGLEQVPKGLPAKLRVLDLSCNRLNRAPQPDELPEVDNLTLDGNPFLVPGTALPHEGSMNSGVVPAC

[2] = biological target: T1, soluble CD14 protein (sCD14, aa 1-352); experiment: pull-down

B1: 6-His-tagged HMGB1 B box protein (aa 88-162) (domain or fragment, human, UniProt P09429 88-162, looked up)
chain: KFKDPNAPKRPPSAFFLFCSEYRPKIKGEHPGLSIGDVAKKLGEMWNNTAADDKQPYEKKAAKLKEKYEKDIAAY
B1: binds [1].

B2: GST-HMGB1 (natural protein, human, UniProt P09429 1-215, looked up)
chain: MGKGDPKKPRGKMSSYAFFVQTCREEHKKKHPDASVNFSEFSKKCSERWKTMSAKEKGKFEDMAKADKARYEREMKTYIPPKGETKKKFKDPNAPKRPPSAFFLFCSEYRPKIKGEHPGLSIGDVAKKLGEMWNNTAADDKQPYEKKAAKLKEKYEKDIAAYRAKGKPDAAKKGVVKAEKSKKKKEEEEDEEDEEDEEEEEDEEDEDEEEDDDDE
B2: binds [2].
